This data set can be described thus: pseudovirus neutralisation, TZM-bl. To be noted: glycan lost; control: wild type.
Turning to HIV-1 25711-2.4 Env: N160A, the “other: neutralisation sensitivity, other: ID50 (reciprocal plasma dilution)” value (“other: neutralisation sensitivity, other” for short) is given as “no change, 1484.35 vs 1822.04”.

Regarding HIV-1 25711-2.4 Env: N332A, the “other: neutralisation sensitivity, other” value is recorded as “decreases, 357.36 vs 1822.04”. Then HIV-1 CAP239.G3 Env: N160A, with “increases, 4184.00 vs 1096.00, Fold decrease in ID50 0.26”. With HIV-1 CAP239.G3 Env: N332A, the “other: neutralisation sensitivity, other” value was “decreases, 204.60 vs 1096.00”.

With HIV-1 25711-2.4 Env: N301A, the “other: neutralisation sensitivity, other” value was “decreases, 749.81 vs 1822.04”.

(Values after publication PMC5006590.)
